In paper PMC8786347 (Oncoimmunology, 2022):
One block for each binder: values may come before it.

Tests used:
Assay in all cases: ELISA
[1] = biological target: CD40-huFc (UniProt P25942 21-193)
[2] = biological target: T1, CD27-moFc (UniProt P26842 20-191)
T1 sequence (looked up): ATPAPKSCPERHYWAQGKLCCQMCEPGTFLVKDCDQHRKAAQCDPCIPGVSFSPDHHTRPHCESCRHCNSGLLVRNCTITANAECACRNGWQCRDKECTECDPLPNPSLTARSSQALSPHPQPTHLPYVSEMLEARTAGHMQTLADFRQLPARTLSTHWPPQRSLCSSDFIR

[3] = biological target: CD40-moFc (UniProt P25942 21-193)
Sequence of CD40-moFc (P25942 21-193): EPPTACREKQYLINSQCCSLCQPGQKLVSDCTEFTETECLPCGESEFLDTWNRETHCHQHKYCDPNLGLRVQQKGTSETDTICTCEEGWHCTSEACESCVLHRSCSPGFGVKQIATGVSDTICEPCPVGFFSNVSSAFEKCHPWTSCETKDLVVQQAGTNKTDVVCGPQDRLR

[4] = biological target: T2, OX40-moFc (UniProt P43489 29-214)
T2 sequence (looked up): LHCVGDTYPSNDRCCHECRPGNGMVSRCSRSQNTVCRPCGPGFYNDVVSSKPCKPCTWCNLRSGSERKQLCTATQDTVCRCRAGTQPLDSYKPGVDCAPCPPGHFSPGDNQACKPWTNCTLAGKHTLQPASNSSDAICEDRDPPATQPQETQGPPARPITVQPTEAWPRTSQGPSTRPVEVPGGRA

[5] = biological target: T3, mOX40-Fc (mouse, UniProt P47741 20-211)
T3 sequence (looked up): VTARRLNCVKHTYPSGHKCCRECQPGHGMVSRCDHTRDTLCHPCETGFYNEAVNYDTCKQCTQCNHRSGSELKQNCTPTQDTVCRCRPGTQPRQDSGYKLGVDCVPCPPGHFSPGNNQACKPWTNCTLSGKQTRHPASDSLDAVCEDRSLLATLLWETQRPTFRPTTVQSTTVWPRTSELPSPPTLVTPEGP

[6] = biological target: T4, m4-1BB-Fc (mouse, UniProt P20334 24-187)
T4 sequence (looked up): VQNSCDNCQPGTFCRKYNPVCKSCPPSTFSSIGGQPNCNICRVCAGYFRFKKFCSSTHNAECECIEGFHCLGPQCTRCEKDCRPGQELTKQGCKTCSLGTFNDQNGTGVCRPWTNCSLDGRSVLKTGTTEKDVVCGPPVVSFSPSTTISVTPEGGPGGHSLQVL

[7] = biological target: T5, mCD27-Fc (mouse, UniProt P41272 24-182)
T5 sequence (looked up): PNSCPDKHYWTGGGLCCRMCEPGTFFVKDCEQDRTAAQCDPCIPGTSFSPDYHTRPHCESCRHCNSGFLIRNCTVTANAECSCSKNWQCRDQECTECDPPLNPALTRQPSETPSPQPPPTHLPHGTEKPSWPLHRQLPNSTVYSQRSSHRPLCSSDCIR

[8] = biological target: T6, mCD40-Fc (mouse, UniProt P27512 20-193)
T6 sequence (looked up): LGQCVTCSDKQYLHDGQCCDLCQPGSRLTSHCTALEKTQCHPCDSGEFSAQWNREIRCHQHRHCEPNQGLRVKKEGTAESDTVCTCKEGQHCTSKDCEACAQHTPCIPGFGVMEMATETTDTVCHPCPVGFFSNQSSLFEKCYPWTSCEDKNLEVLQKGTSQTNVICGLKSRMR

Sequence of CD40-huFc (P25942 21-193): as the sequence (P25942 21-193) above

EC50 [1]: 0.1 nM
EC50 [2]: 0.3 nM
B1: scCD40L-scCD27L-Fc (Fc fusion, human)
chain 1: GDQNPQIAAHVISEASSKTTSVLQWAEKGYYTMSNNLVTLENGKQLTVKRQGLYYIYAQVTFCSNREASSQAPFIASLCLKSPGRFERILLRAANTHSSAKPCGQQSIHLGGVFELQPGASVFVNVTDPSQVSHGTGFTSFGLLKLGGGDQNPQIAAHVISEASSKTTSVLQWAEKGYYTMSNNLVTLENGKQLTVKRQGLYYIYAQVTFCSNREASSQAPFIASLCLKSPGRFERILLRAANTHSSAKPCGQQSIHLGGVFELQPGASVFVNVTDPSQVSHGTGFTSFGLLKLGGGDQNPQIAAHVISEASSKTTSVLQWAEKGYYTMSNNLVTLENGKQLTVKRQGLYYIYAQVTFCSNREASSQAPFIASLCLKSPGRFERILLRAANTHSSAKPCGQQSIHLGGVFELQPGASVFVNVTDPSQVSHGTGFTSFGLLKL
chain 2: SLGWDVAELQLNHTGPQQDPRLYWQGGPALGRSFLHGPELDKGQLRIHRDGIYMVHIQVTLAICSSTTASRHHPTTLAVGICSPASRSISLLRLSFHQGCTIASQRLTPLARGDTLCTNLTGTLLPSRNTDETFFGVQWVRPGGSLGWDVAELQLNHTGPQQDPRLYWQGGPALGRSFLHGPELDKGQLRIHRDGIYMVHIQVTLAICSSTTASRHHPTTLAVGICSPASRSISLLRLSFHQGCTIASQRLTPLARGDTLCTNLTGTLLPSRNTDETFFGVQWVRPGGSLGWDVAELQLNHTGPQQDPRLYWQGGPALGRSFLHGPELDKGQLRIHRDGIYMVHIQVTLAICSSTTASRHHPTTLAVGICSPASRSISLLRLSFHQGCTIASQRLTPLARGDTLCTNLTGTLLPSRNTDETFFGVQWVRP

EC50 [1]: 0.5 nM
EC50 [3]: 0.3 nM
EC50 [4]: 0.2 nM
B2: scCD40L-scOX40L-Fc (Fc fusion, human)
chain 1: GDQNPQIAAHVISEASSKTTSVLQWAEKGYYTMSNNLVTLENGKQLTVKRQGLYYIYAQVTFCSNREASSQAPFIASLCLKSPGRFERILLRAANTHSSAKPCGQQSIHLGGVFELQPGASVFVNVTDPSQVSHGTGFTSFGLLKLGGGDQNPQIAAHVISEASSKTTSVLQWAEKGYYTMSNNLVTLENGKQLTVKRQGLYYIYAQVTFCSNREASSQAPFIASLCLKSPGRFERILLRAANTHSSAKPCGQQSIHLGGVFELQPGASVFVNVTDPSQVSHGTGFTSFGLLKLGGGDQNPQIAAHVISEASSKTTSVLQWAEKGYYTMSNNLVTLENGKQLTVKRQGLYYIYAQVTFCSNREASSQAPFIASLCLKSPGRFERILLRAANTHSSAKPCGQQSIHLGGVFELQPGASVFVNVTDPSQVSHGTGFTSFGLLKL
chain 2: QVSHRYPRIQSIKVQFTEYKKEKGFILTSQKEDEIMKVQNNSVIINCDGFYLISLKGYFSQEVNISLHYQKDEEPLFQLKKVRSVNSLMVASLTYKDKVYLNVTTDNTSLDDFHVNGGELILIHQNPGEFCVLGGGGSGGGGSGGGGSQVSHRYPRIQSIKVQFTEYKKEKGFILTSQKEDEIMKVQNNSVIINCDGFYLISLKGYFSQEVNISLHYQKDEEPLFQLKKVRSVNSLMVASLTYKDKVYLNVTTDNTSLDDFHVNGGELILIHQNPGEFCVLGGGGSGGGGSGGGGSQVSHRYPRIQSIKVQFTEYKKEKGFILTSQKEDEIMKVQNNSVIINCDGFYLISLKGYFSQEVNISLHYQKDEEPLFQLKKVRSVNSLMVASLTYKDKVYLNVTTDNTSLDDFHVNGGELILIHQNPGEFCVL

EC50 [5]: 55.2 nM
EC50 [6]: 9.2 nM
B3: msc4-1BBL-mscOX40L-mFc (Fc fusion)
chain 1: RTEPRPALTITTSPNLGTRENNADQVTPVSHIGCPNTTQQGSPVFAKLLAKNQASLCNTTLNWHSQDGAGSSYLSQGLRYEEDKKELVVDSPGLYYVFLELKLSPTFTNTGHKVQGWVSLVLQAKPQVDDFDNLALTVELFPCSMENKLVDRSWSQLLLLKAGHRLSVGLRAYLHGAQDAYRDWELSYPNTTSFGLFLVKPDNPWEGGGGSGGGGSGGGGSGGGGSRTEPRPALTITTSPNLGTRENNADQVTPVSHIGCPNTTQQGSPVFAKLLAKNQASLCNTTLNWHSQDGAGSSYLSQGLRYEEDKKELVVDSPGLYYVFLELKLSPTFTNTGHKVQGWVSLVLQAKPQVDDFDNLALTVELFPCSMENKLVDRSWSQLLLLKAGHRLSVGLRAYLHGAQDAYRDWELSYPNTTSFGLFLVKPDNPWEGGGGSGGGGSGGGGSGGGGSRTEPRPALTITTSPNLGTRENNADQVTPVSHIGCPNTTQQGSPVFAKLLAKNQASLCNTTLNWHSQDGAGSSYLSQGLRYEEDKKELVVDSPGLYYVFLELKLSPTFTNTGHKVQGWVSLVLQAKPQVDDFDNLALTVELFPCSMENKLVDRSWSQLLLLKAGHRLSVGLRAYLHGAQDAYRDWELSYPNTTSFGLFLVKPDNPWE
chain 2: SSSPAKDPPIQRLRGAVTRCEDGQLFISSYKNEYQTMEVQNNSVVIKCDGLYIIYLKGSFFQEVKIDLHFREDHNPISIPMLNDGRRIVFTVVASLAFKDKVYLTVNAPDTLCEHLQINDGELIVVQLTPGYCAPEGSYHSTVNQVPLGGGGSGGGGSGGGGSSSSPAKDPPIQRLRGAVTRCEDGQLFISSYKNEYQTMEVQNNSVVIKCDGLYIIYLKGSFFQEVKIDLHFREDHNPISIPMLNDGRRIVFTVVASLAFKDKVYLTVNAPDTLCEHLQINDGELIVVQLTPGYCAPEGSYHSTVNQVPLGGGGSGGGGSGGGGSSSSPAKDPPIQRLRGAVTRCEDGQLFISSYKNEYQTMEVQNNSVVIKCDGLYIIYLKGSFFQEVKIDLHFREDHNPISIPMLNDGRRIVFTVVASLAFKDKVYLTVNAPDTLCEHLQINDGELIVVQLTPGYCAPEGSYHSTVNQVPL

EC50 [7]: 0.4 nM
EC50 [8]: 1.4 nM
B4: mscCD40L-mscCD27L-mFc (Fc fusion)
chain 1: HRRLDKVEEEVNLHEDFVFIKKLKRCNKGEGSLSLLNCEEMRRQFEDLVKDITLNKEEKKENSFEMQRGDEDPQIAAHVVSEANSNAASVLQWAKKGYYTMKSNLVMLENGKQLTVKREGLYYVYTQVTFCSNREPSSQRPFIVGLWLKPSSGSERILLKAANTHSSSQLCEQQSVHLGGVFELQAGASVFVNVTEASQVIHRVGFSSFGLLKLGGHRRLDKVEEEVNLHEDFVFIKKLKRCNKGEGSLSLLNCEEMRRQFEDLVKDITLNKEEKKENSFEMQRGDEDPQIAAHVVSEANSNAASVLQWAKKGYYTMKSNLVMLENGKQLTVKREGLYYVYTQVTFCSNREPSSQRPFIVGLWLKPSSGSERILLKAANTHSSSQLCEQQSVHLGGVFELQAGASVFVNVTEASQVIHRVGFSSFGLLKLGGHRRLDKVEEEVNLHEDFVFIKKLKRCNKGEGSLSLLNCEEMRRQFEDLVKDITLNKEEKKENSFEMQRGDEDPQIAAHVVSEANSNAASVLQWAKKGYYTMKSNLVMLENGKQLTVKREGLYYVYTQVTFCSNREPSSQRPFIVGLWLKPSSGSERILLKAANTHSSSQLCEQQSVHLGGVFELQAGASVFVNVTEASQVIHRVGFSSFGLLKL
chain 2: SKQQQRLLEHPEPHTAELQLNLTVPRKDPTLRWGAGPALGRSFTHGPELEEGHLRIHQDGLYRLHIQVTLANCSSPGSTLQHRATLAVGICSPAAHGISLLRGRFGQDCTVALQRLTYLVHGDVLCTNLTLPLLPSRNADETFFGVQWICPGGSKQQQRLLEHPEPHTAELQLNLTVPRKDPTLRWGAGPALGRSFTHGPELEEGHLRIHQDGLYRLHIQVTLANCSSPGSTLQHRATLAVGICSPAAHGISLLRGRFGQDCTVALQRLTYLVHGDVLCTNLTLPLLPSRNADETFFGVQWICPGGSKQQQRLLEHPEPHTAELQLNLTVPRKDPTLRWGAGPALGRSFTHGPELEEGHLRIHQDGLYRLHIQVTLANCSSPGSTLQHRATLAVGICSPAAHGISLLRGRFGQDCTVALQRLTYLVHGDVLCTNLTLPLLPSRNADETFFGVQWICP
